Data set [1] deals with the molecule itself. The data set can be described thus: size-exclusion chromatography; self-crosslinking. In general terms: Size exclusion chromatography separates by hydrodynamic size, large species first.
Data set [2] deals with the molecule itself. The data set can be described thus: size-exclusion chromatography; self-association.

B1: SnAP-body variant 1 (anti-CD33) (antibody, human IgG1, kappa)
heavy: not shown
light: QIVLTQSPAIMSASPGEKVTITCSASSSISYMHWFQQRTNGSPRLWIYTTSNLASGVPARFSGSGSGTSYSLTISRMEAEDEADYYCHQRSTYPLTFGAGTKLELKRTVAAPSVFIFPPSDEQLKSGTASVVCLLNNFYPREAKVQWKVDNALQSGNSQESVTEQDSKDSTYSLSSTLTLSKADYEKHKVYACEVTHQGLSSPVTKSFNRGEC
notes: also called self-crosslinking antibody; Anti-CD33 SnAP-body variant 1
With B1, in data set [1], the binding result is on record as “binds”.

B2: control antibody (meditope-enabled gemtuzumab IgG1 without meditope or linker) (antibody)
heavy: not shown
light: QIVLTQSPAIMSASPGEKVTITCSASSSISYMHWFQQRTNGSPRLWIYTTSNLASGVPARFSGSGSGTSYSLTISRMEAEDEADYYCHQRSTYPLTFGAGTKLELKRTVAAPSVFIFPPSDEQLKSGTASVVCLLNNFYPREAKVQWKVDNALQSGNSQESVTEQDSKDSTYSLSSTLTLSKADYEKHKVYACEVTHQGLSSPVTKSFNRGEC
notes: IgG1; also called control gemtuzumab antibody; gemtuzumab control antibody
With B2, the binding result in data set [2] is “no binding”.

B3: SnAP-body variant 3 (anti-CD33) (antibody, human IgG1, kappa)
heavy: not shown
light: QIVLTQSPAIMSASPGEKVTITCSASSSISYMHWFQQRTNGSPRLWIYTTSNLASGVPARFSGSGSGTSYSLTISRMEAEDEADYYCHQRSTYPLTFGAGTKLELKRTVAAPSVFIFPPSDEQLKSGTASVVCLLNNFYPREAKVQWKVDNALQSGNSQESVTEQDSKDSTYSLSSTLTLSKADYEKHKVYACEVTHQGLSSPVTKSFNRGEC
notes: also called self-crosslinking antibody
In the case of B3, the binding result in data set [1] is recorded as “binds”.

B4: SnAP-body variant 2 (anti-CD33) (antibody, human IgG1, kappa)
heavy: not shown
light: QIVLTQSPAIMSASPGEKVTITCSASSSISYMHWFQQRTNGSPRLWIYTTSNLASGVPARFSGSGSGTSYSLTISRMEAEDEADYYCHQRSTYPLTFGAGTKLELKRTVAAPSVFIFPPSDEQLKSGTASVVCLLNNFYPREAKVQWKVDNALQSGNSQESVTEQDSKDSTYSLSSTLTLSKADYEKHKVYACEVTHQGLSSPVTKSFNRGEC
notes: also called self-crosslinking antibody; Anti-CD33 SnAP-body variant 2
In the case of B4, the binding result in data set [1] is reported as “binds”.
